Series [1] can be described thus: immunoblot of sEVs from transfected Huh7 cells. The conditions noted are these: glycan lost; control: TM4SF5-Strep WT. For orientation: A western blot detects proteins with antibodies after separation by electrophoresis.
Series [2] is described as follows: sucrose gradient sEV fractions from SNU449, Strep immunoblot. The conditions noted are these: glycan lost; control: TM4SF5-WT.

B1: Transmembrane 4 L six family member 5 (TM4SF5): N138A/N155Q, Gly− (protein)
parent chain: MCTGKCARCVGLSLITLCLVCIVANALLLVPNGETSWTNTNHLSLQVWLMGGFIGGGLMVLCPGIAAVRAGGKGCCGAGCCGNRCRMLRSVFSSAFGVLGAIYCLSVSGAGLRNGPRCLMNGEWGYHFEDTAGAYLLNRTLWDRCEAPPRVVPWNVTLFSLLVAASCLEIVLCGIQLVNATIGVFCGDCRKKQDTPH
Regarding B1, the localisation_or_trafficking result in series [1] and in series [2] was “abolishes” in each case.

B2: Transmembrane 4 L six family member 5 (TM4SF5): N138A (protein)
parent chain: B1 parent chain
Turning to B2, the localisation_or_trafficking entry in series [1] was “decreases”.

B3: Transmembrane 4 L six family member 5 (TM4SF5): N155Q (protein)
parent chain: B1 parent chain
Consider B3, for which the localisation_or_trafficking entry in series [1] was “no change”.

The values above are taken from article PMC9443943.
